Experimental findings from paper doi:10.1101/2022.08.30.505823 (bioRxiv, 2022) are described below.

Data set [1] deals with BIRC6 (human, wild type, recombinant) (human) (UniProt Q9NR09). Description: cryo-EM structure. The settings on record: remark: other sources report otherwise.
Data set [2] has the same target. As to the kind of experiment: mass photometry. The note with it: remark: other sources report otherwise.
The data set “cryo-EM structure” deals with the molecule itself. As to the kind of experiment: cryo-EM structure.

Turning to “BIRC6 (human, wild type, recombinant), Q9NR09 1-4857”, the stoichiometry N in data set [1] and in data set [2] was 2 throughout.

B1: SMAC (natural protein)
chain: AVPIAQKSEPHSLSSEALMRRAVSLVTDSTSTFLSQTTYALIEAITEYTKAVYTLTSLYRQYTSLLGKMNSEEEDEVWQVIIGARAEMTSKHQEYLKLETTWMTAVGLSEMAAEAAYQTGADQASITARNHIQLVKLQVEEVHQLSRKAETKLAEAQIEELRQKTQEEGEERAESEQEAYLRED
As to B1, the “stoichiometry N” value in “cryo-EM structure” came to 2.

For orientation: stoichiometry N means the number of molecules, sites or subunits per partner or assembly.
